# Results: patent US20240082356A1, “TREATMENT OF COPD BY STIMULATION OF STEM CELL MOBILIZATION” (Therapeutic Solutions International, Inc., priority 2022, published 2024)
# System: neutrophil infiltration in COPD like inflammation
# Assay: Neutrophil infiltration in elastase-induced COPD model
# Type: in vivo
# Details: female BALB/c mice injected with elastase (5 micrograms per mouse); G-CSF 10 micrograms per mouse every second day for one week and pterostilbene 40 mg/kg intraperitoneally; assessed on days 0, 7 and 14
# Procedure: Female BALB/c mice, 10 per group, where injected with elastase (5 micrograms per mouse) to induce COPD like inflammation. Mice were given G-CSF (10 micrograms per mouse) every second day for one week and pterostilbene (40 mg/kg) intraperitoneally. Mice were sacrificed on days 0, 7, and 14 and assessed for neutrophil infiltration.
molecule,measurement,value
"G-CSF: stem cell mobilizer; colony stimulating factor (protein, UniProt P09919 31-207, looked up) Granulocyte …: TPLGPASSLPQSFLLKCLEQVRKIQGDGAALQEKLVSECATYKLCHPEELVLLGHSLGIPWAPLSSCPSQALQLAGCLSQLHSGLFLYQGLLQALEGISPELGPTLDTLQLDVADFATTIWQQMEELGMAPALQPTQGAMPAFASAFQRRAGGVLVASHLQSFLEVSYRVLRHLAQP",neutrophil infiltration in COPD Model,reduction of neutrophil infiltration
